Patent US20190083619A1, “METHODS AND COMPOSITIONS FOR REMOVING, REDUCING, DISPERSING, DISRUPTING OR ERADICATING BIOFILMS AND DETERMINING THE NUMBER OF BACTERIAL POPULATION IN BIOFILM OR A CULTURE CONTAINING BACTERIAL AGGREGATE” (INSTITUTE OF MICROBIOLOGY, CHINESE ACADEMY OF SCIENCES, priority 2017, published 2019)

Assays:
ΔpaaP strain = assay: MIC by E test strips; type: cell-based, P. aeruginosa; settings: E test strip, 37° C. overnight; FIG. 9A
Procedure: The MIC (minimum inhibition concentration) of ΔpaaP strain to tobramycin and ciprofloxacin, two antibiotics commonly used to treat P. aeruginosa infections, was tested by E test strips. Overnight culture was diluted to OD600˜0.1, and spread on the plate. The E test strip was put onto the plate, cultivated at 37° C. overnight, and the minimum inhibition concentration was recorded according to the E test strip.

Psl production in PAO1 = assay: Psl production by anti-Psl immunodot blotting; type: cell-based, P. aeruginosa; settings: 5 μM C12-HSL added to culture medium; FIG. 3D
Procedure: To examine Psl production, exopolysaccharide Psl extracts were collected from overnight cultures equivalent to approximately 10 OD600 and examined by immunodot blotting using an anti-Psi antibody. For the effect of C12-HSL on Psl production, 5 μM C12-HSL was added to the medium after inoculation. The software Image Lab™ was used to quantify the immunodot blotting data.
LasI directs the synthesis of the QS signal molecular, N-(3-oxododecanoyl)-L-homoserine lactone (C12-HSL). Thus, whether C12-HSL supplement could affect Psl production in PAO1 was examined. […] C12-HSL is usually associated with the transcriptional regulator LasR to active their target genes.

[1] = tested on: psl transcription in PAO1; assay: psl transcription detected by psl::gfp reporter plasmid; type: cell-based, P. aeruginosa; settings: 5 μM C12-HSL added to PAO1 culture; FIG. 3E
[2] = target: T1, (2S,3R)-3-Amino-2-hydroxy-5-methylhexanoyl-Val-Val-Asp (Amastatin)
T1 chain: VVD

PAO1 biofilms = assay: Dispersal of air-liquid interface biofilms and live cell counting by CFU; type: cell-based, P. aeruginosa; settings: 50 nM PslG, 30° C., 1 h, versus tissue homogenate and control; FIG. 14
Procedure: The PAO1 strain was inoculated on LBNS solid medium plates and overnight incubated at 37° C. Then monoclones of the PAO1, collected from the LBNS solid medium plates, were inoculated in LBNS liquid medium and incubated at 37° C. overnight with shaking at 200 rpm. The culture was washed with PBS for once. Then the culture was inoculated in Jensen's liquid medium at 1:100 (V:V), and incubated at 30° C. in a 24-pore plate. Biofilms were formed at the air-liquid interface. The liquid under the biofilms was removed by a pipettor. The biofilms were washed with PBS for twice so as to remove free bacterial cells that are not embedded in the biofilms. The biofilms were added in PBS for subsequent treatment. For a tissue homogenate treatment group, a sterile glass homogenizer (1 mL) was used to homogenize the biofilms for three times. For PslG treatment group, PslG was added to the biofilms, and the final concentration of PslG is 50 nM. The biofilms were incubated at 30° C. for 1 h. For a control group, no treatment was performed on the biofilms at this stage. Afterwards, the biofilm samples from the tissue homogenate treatment group, the PslG treatment group, and the control group were homogenized using a pipette and then votexed. The biofilm samples were diluted in PBS at 1:10. […] The numbers of live cells in the biofilm samples was determined based on the CFUs.

A1501 = assay: Dispersal of bacterial aggregates in liquid culture, OD600 read; type: cell-based, P. stutzeri; settings: 100 nM PslG, KLG+ medium, 3 h, 6 h, 30 h; FIG. 13C
Procedure: (§1) PAO1-derived rugose small colony variant (RSCV) strain MJK8 was grown in LBNS at 37° C. 200 rpm overnight. This overnight culture was washed and then inoculated into Jensen's medium or in LBNS medium at 1:50 with or without 100 nM of PslG. Bacterial growth was determined by taking OD600 read at 3 h and 6 h post inoculation. P. stutzeri strain A1501 was firstly grown in LD medium at 30° C. 200 rpm overnight. The overnight culture was washed and inoculated into KLG^+ medium at 1:50 with or without 100 nM of PslG. OD600 was taken at 3 h, 6 h and 30 h post inoculation to monitor the bacterial growth. FIGS. 13A-13C show the comparison of OD600 read with or without PslG treatment of: MJK8 growth in chemically defined Jensen's medium (FIG. 13A); MJK8 growth in LBNS rich medium (FIG. 13B); A1501 growth in KLG^+ medium (FIG. 13C).

[3] = In vitro treatment of Psl extract, elution profile on Sephadex G-50 column; type: biochemical, P. aeruginosa; settings: exogenous-supplied PslG in vitro; FIG. 8B
Procedure: The Psl extract from biofilm was prepared, fractionated on a Sephadex G-50 column, and irrigated with water at 0.67 ml/min. The total carbohydrate in each fraction (5 ml) was assayed colorimetrically for aldose. Briefly, 200 μl of each fraction was mixed with 100 μl 5% phenol and 500 μl concentrated sulfuric acid, reacted at room temperature for 30 minutes, and measured (OD492).
To confirm, the Psl extracted from PAO1 biofilms was treated with exogenous-supplied PslG in vitro.

MJK8 = assay: Dispersal of bacterial aggregates in liquid culture, OD600 read; type: cell-based, P. aeruginosa; settings: 100 nM PslG, Jensen's or LBNS medium, 3 h and 6 h; FIG. 13A, 13B
Procedure: as §1

With `O=C(O)c1cn(C2CC2)c2cc(N3CCNCC3)c(F)cc2c1=O` [ciprofloxacin] the “MIC of ΔpaaP, fold lower than PAO1” value (ΔpaaP strain) was 8 fold.

With `CCCCCCCCCC(=O)CC(=O)N[C@H]1CCOC1=O` [C12-HSL, N-(3-oxododecanoyl)-L-homoserine lactone] the “effect on Psl production” value (Psl production in PAO1) was “did increase Psl production in PAO1” and the “effect on psl transcription” value [1] was “psl transcription was enhanced”.

B1: P. aeruginosa aminopeptidase (PaAP) (protein)
chain: APSEAQQFTEFWTPGKPNPSICKSPLLVSTPLGLPRCLQASNVVKRLQKLEDIASLNDGNRAAATPGYQASVDYVKQTLQKAGYKVSVQPFPFTAYYPKGPGSLSATVPQPVTYEWEKDFTYLSQTEAGDVTAKVVPVDLSLGAGNTSTSGCEAEDFANFPAGSIALIQRGTCNFEQKAENAAAAGAAGVIIFNQGNTDDRKGLENVTVGESYEGGIPVIFATYDNGVAWSQTPDLQLHLVVDVVRKKTETYNVVAETRRGNPNNVVMVGAHLDSVFEGPGINDNGSGSAAQLEMAVLLAKALPVNKVRFAWWGAEEAGLVGSTHYVQNLAPEEKKKIKAYLNFDMIGSPNFGNFIYDGDGSDFGLQGPPGSAAIERLFEAYFRLRGQQSEGTEIDFRSDYAEFFNSGIAFGGLFTGAEGLKTEEQAQKYGGTAGKAYDECYHSKCDGIANINQDALEIHSDAMAFVTSWLSLSTKVVDDEIAAAGQKAQSRSLQMQKSASQIERWGHDFIK
In the case of B1, the “PaAP catalytic activity (hydrolysis of Leu-p-nitroanilide, 7 nM PaAP with 10, 20, 30 µM Amastatin or without)” value [2] is reported as “the Amastatin may inhibit the enzyme activity of PaAP at micromolar concentrations, and the inhibition effect may increase with higher concentration of Amastatin”.

B2: PslG: glycosyl hydrolase of P. aeruginosa that degrades the Psl exopolysaccharide matrix; amino acid sequence SEQ ID NO: 6 (protein)
chain: EIQVLKAPRAVVWKDFLGVNAQFLWFSPERYNKQIDRLQDLGLEWVRLDLHWDRLETAEDQYQLASLDQLVKDLEARQLKSVFYLVGSARFITTAPFYSPFQDQYPPRDPEVFARRMAMLSQRYPSVAAWQVWNEPNLIGFWRPKADPEGYAKLLQASTIALRMVDPEKPVVSAGMAFFSEMPDGRTMFDALGHLGVESLGTIATYHPYTQLPEGNYPWNLDFVSHANQINRALRNAGVPAIWSTEWGWSAYKGPKELQDIIGVEGQADYVLRRLALMSALDYDRIFLFTLSDLDQRASVRDRDYGLLDLDANPKPVYLALQRFLKVTGPKLRPADPPVTEDLPDGSFSIGWTREDGRNVWLFWSARGGNVRLPKLKEATLHDPLSGKVTPLSGSDGLEVPVKSSLQMLVWE
With B2 the “number of detected CFUs for treated biofilms” value (PAO1 biofilms) was “significantly greater than the number of detected CFUs for the biofilms treated by tissue homogenate, and the biofilms in the control group”, the “dispersal of flocs in liquid culture” value (A1501) was “can disperse the flocs of MJK8 and A1501 in liquid culture” and the “elution profile of PslG-degraded Psl” value [3] was “showed a very similar profile as Psl extracted from the ΔpaaP biofilm”. The “dispersal of flocs in liquid culture” value (MJK8) was “can disperse the flocs of MJK8 and A1501 in liquid culture”.
